Reference: patent publication US20090324590A1

Molecular target: recombinant wild type myostatin
Assay: cell-based or functional assay

- p-FoxO1 expression (Western blot, normalised to total FoxO1) in C2C12 myotubes; myostatin 6 ug/mL with 300 at 30, 60, 90 or 120 ug/mL for 24 hours; concentration of 300 giving maximal rescue: 90 µg/mL
Substance: myostatin antagonist 300 (amino acids 267-300 of bovine myostatin with N-terminal and C-terminal tags) (peptide)
